Measured values as given in the supplement of paper PMC9233669.
Variants at the floor of the assay were thinned out.

Columns and labels:
biotinyl-Phe-oxazolone = assay: self-aminoacylation, catalytic enhancement (BFO) (fold over background); higher = more active; k-Seq, kA / k0A0; sequences stand for … in GGGAAUGGAUCCACAUCUACGAAUUC…UUCACUGCAGACUUGACGAAGCUG
Outline: (§1)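 The uncatalyzed rate is the low-activity peak of a bimodal Gaussian fit, and catalytic enhancement is median kA divided by it. The kA values came from pseudo-first-order fits, with 1000 bootstraps, of per-sequence fraction reacted measured by streptavidin capture, triplicate qPCR and Illumina sequencing. Mutagenized RNA pools with a 21-nt variable region (0.43 μM) were reacted with each biotinyl-aminoacyl-oxazolone at 2–1250 μM in 50 μL HEPES/NaCl/KCl/MgCl2/CaCl2 buffer with 5% acetonitrile, pH 6.9–7.0, for 90 minutes at room temperature.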

biotinyl-Trp-oxazolone = assay: self-aminoacylation, catalytic enhancement (BWO) (fold over background); higher = more active; k-Seq, kA / k0A0; sequences stand for … in GGGAAUGGAUCCACAUCUACGAAUUC…UUCACUGCAGACUUGACGAAGCUG
Outline: as §1

biotinyl-Ile-oxazolone = assay: self-aminoacylation, catalytic enhancement (BIO) (fold over background); higher = more active; k-Seq, kA / k0A0; sequences stand for … in GGGAAUGGAUCCACAUCUACGAAUUC…UUCACUGCAGACUUGACGAAGCUG
Outline: as §1

biotinyl-Met-oxazolone = assay: self-aminoacylation, catalytic enhancement (BMO) (fold over background); higher = more active; k-Seq, kA / k0A0; sequences stand for … in GGGAAUGGAUCCACAUCUACGAAUUC…UUCACUGCAGACUUGACGAAGCUG
Outline: as §1

biotinyl-Leu-oxazolone = assay: self-aminoacylation, catalytic enhancement (BLO) (fold over background); higher = more active; k-Seq, kA / k0A0; sequences stand for … in GGGAAUGGAUCCACAUCUACGAAUUC…UUCACUGCAGACUUGACGAAGCUG
Outline: as §1

biotinyl-Val-oxazolone = assay: self-aminoacylation, catalytic enhancement (BVO) (fold over background); higher = more active; k-Seq, kA / k0A0; sequences stand for … in GGGAAUGGAUCCACAUCUACGAAUUC…UUCACUGCAGACUUGACGAAGCUG
Outline: as §1

| Sequence | self-aminoacylation (biotinyl-Phe-oxazolone) | self-aminoacylation (biotinyl-Trp-oxazolone) | self-aminoacylation (biotinyl-Ile-oxazolone) | self-aminoacylation (biotinyl-Met-oxazolone) | self-aminoacylation (biotinyl-Leu-oxazolone) | self-aminoacylation (biotinyl-Val-oxazolone) |
| --- | --- | --- | --- | --- | --- | --- |
| CCACACUUCAAGCACUUGGUC [Fam1B.1 aminoacylation ribozyme variant] | 1.03 | 0.616 | 0.816 | 0.775 | 0.818 | 0.65 |
| CCACACUUCAAGCAGUAGGUC [Fam1B.1 aminoacylation ribozyme variant] | 0.807 | 0.401 | 0.633 | 0.425 | 0.51 | 0.815 |
| CCACACUUCAAGCAGUCGGUC [Fam1B.1 aminoacylation ribozyme variant] | 1.1 | 0.712 | 0.849 | 0.724 | 0.783 | 0.878 |
| CCACACUUCAAGCAGUCGGUG [Fam1B.1 aminoacylation ribozyme variant] | 18.4 | 2.1 | 2.18 | 2.34 | 3.56 | 2.29 |
| CCACACUUCAAGCAGUCUGUC [Fam1B.1 aminoacylation ribozyme variant] | 0.562 | 0.305 | 0.339 | 0.383 | 0.353 | 0.478 |
| CCACACUUCAAGCAUACGGUC [Fam1B.1 aminoacylation ribozyme variant] | 0.63 | 0.453 | 0.564 | 0.538 | 0.501 | 0.836 |
| CCACACUUCAAGCCAUAGGUC [Fam1B.1 aminoacylation ribozyme variant] | 0.805 | 0.633 | 0.812 | 0.622 | 0.632 | 0.688 |
| CCACACUUCAAGCCAUCGGUA [Fam1B.1 aminoacylation ribozyme variant] | 0.774 | 1.05 | 1.53 | 1.7 | 1.88 | 1.4 |
| CCACACUUCAAGCCAUCUGUC [Fam1B.1 aminoacylation ribozyme variant] | 0.711 | 0.498 | 0.493 | 0.542 | 0.401 | 0.72 |
| CCACACUUCAAGCCGUCGGUC [Fam1B.1 aminoacylation ribozyme variant] | 0.678 | 1 | 1.41 | 1.47 | 1.57 | 1.49 |
| CCACACUUCAAGCUAUAGGUC [Fam1B.1 aminoacylation ribozyme variant] | 0.975 | 0.508 | 0.613 | 0.513 | 0.489 | 0.806 |
| CCACACUUCAAGCUAUCGGUA [Fam1B.1 aminoacylation ribozyme variant] | 0.934 | 1.29 | 1.16 | 0.992 | 1.28 | 1.18 |
| CCACACUUCAAGUAAUCGGGC [Fam1B.1 aminoacylation ribozyme variant] | 1.28 | 1.73 | 1.68 | 1.64 | 1.54 | 1.69 |
| CCACACUUCAAGUAAUCGUUC [Fam1B.1 aminoacylation ribozyme variant] | 0.886 | 0.552 | 0.628 | 0.613 | 0.705 | 0.801 |
| CCACACUUCAAGUAAUGGGUC [Fam1B.1 aminoacylation ribozyme variant] | 0.642 | 0.546 | 0.868 | 1.04 | 0.803 | 0.66 |
| CCACACUUCAAGUUAUCGGUC [Fam1B.1 aminoacylation ribozyme variant] | 0.799 | 1.08 | 1.09 | 1.01 | 1.04 | 1.06 |
| CCACACUUCAAUCAAACGGUC [Fam1B.1 aminoacylation ribozyme variant] | 0.747 | 0.456 | 0.618 | 0.543 | 0.575 | 0.757 |
| CCACACUUCAAUCAAUCGGUC [Fam1B.1 aminoacylation ribozyme variant] | 42.7 | 21.8 | 1.1 | 1.05 | 1.51 | 1.17 |
| CCACACUUCAAUCAAUCGGUG [Fam1B.1 aminoacylation ribozyme variant] | 2.64 | 2.57 | 2.23 | 2.66 | 3.6 | 1.98 |
| CCACACUUCAAUCAAUCGUUC [Fam1B.1 aminoacylation ribozyme variant] | 1.04 | 0.469 | 0.622 | 0.423 | 0.506 | 0.607 |
| CCACACUUCAAUCAAUCUGUC [Fam1B.1 aminoacylation ribozyme variant] | 0.748 | 0.342 | 0.425 | 0.429 | 0.343 | 0.58 |
| CCACACUUCAAUCAAUGGGUC [Fam1B.1 aminoacylation ribozyme variant] | 0.724 | 0.467 | 0.801 | 0.651 | 0.564 | 0.724 |
| CCACACUUCAAUCCAUCGGUC [Fam1B.1 aminoacylation ribozyme variant] | 0.794 | 0.553 | 0.801 | 0.824 | 0.676 | 0.91 |
| CCACACUUCAAUUAAUCGGUC [Fam1B.1 aminoacylation ribozyme variant] | 26.1 | 15.6 | 1.01 | 0.937 | 1.09 | 1.06 |
| CCACACUUCACGCAAUUGGUC [Fam1B.1 aminoacylation ribozyme variant] | 0.859 | 0.792 | 0.951 | 0.667 | 0.957 | 1.03 |
| CCACACUUCACGCUAUCGGUC [Fam1B.1 aminoacylation ribozyme variant] | 1.09 | 0.951 | 1.13 | 1.03 | 0.971 | 1.17 |

| Sequence | self-aminoacylation (biotinyl-Phe-oxazolone) | self-aminoacylation (biotinyl-Trp-oxazolone) | self-aminoacylation (biotinyl-Ile-oxazolone) | self-aminoacylation (biotinyl-Met-oxazolone) | self-aminoacylation (biotinyl-Leu-oxazolone) | self-aminoacylation (biotinyl-Val-oxazolone) |
| --- | --- | --- | --- | --- | --- | --- |
| CCACACUUCAGACAAUCGGUC [Fam1B.1 aminoacylation ribozyme variant] | 1.33 | 1.29 | 1.17 | 0.902 | 1.53 | 1.26 |
| CCACACUUCAGGCAAUCGGGC [Fam1B.1 aminoacylation ribozyme variant] | 11 | 2.21 | 2.46 | 1.37 | 2.45 | 3.35 |
| CCACACUUCAGGCAAUCGGUA [Fam1B.1 aminoacylation ribozyme variant] | 1.97 | 1.04 | 1.24 | 1.43 | 1.23 | 1.33 |
| CCACACUUCAGGCAAUCGGUC [Fam1B.1 aminoacylation ribozyme variant] | 1.47 | 1.28 | 1.14 | 1.14 | 1.11 | 1.27 |
| CCACACUUCAGGCAGUCGGUC [Fam1B.1 aminoacylation ribozyme variant] | 0.789 | 1.32 | 1.48 | 1.04 | 1.62 | 1.48 |
| CCACACUUCAGUCAAUCGGUC [Fam1B.1 aminoacylation ribozyme variant] | 1.06 | 1.31 | 1.11 | 1.02 | 1.03 | 0.965 |
| CCACACUUCAUGCAAACGGUC [Fam1B.1 aminoacylation ribozyme variant] | 0.769 | 0.512 | 0.809 | 0.556 | 0.507 | 0.774 |
| CCACACUUCAUGCAAUAGGUC [Fam1B.1 aminoacylation ribozyme variant] | 1.03 | 0.467 | 0.711 | 0.582 | 0.637 | 0.834 |
| CCACACUUCAUGCAAUCGAUC [Fam1B.1 aminoacylation ribozyme variant] | 0.923 | 0.336 | 0.552 | 0.528 | 0.489 | 0.721 |
| CCACACUUCAUGCGAUCGGUC [Fam1B.1 aminoacylation ribozyme variant] | 0.762 | 0.917 | 1.1 | 0.828 | 1.12 | 1.17 |
| CCACACUUCAUUCAAUCGGUC [Fam1B.1 aminoacylation ribozyme variant] | 0.605 | 0.495 | 0.806 | 0.604 | 0.701 | 0.744 |
| CCACACUUCCAGCAAUCGAUC [Fam1B.1 aminoacylation ribozyme variant] | 0.92 | 0.611 | 0.83 | 0.673 | 0.579 | 0.959 |
| CCACACUUCCAGCAAUCGGGC [Fam1B.1 aminoacylation ribozyme variant] | 1.84 | 2.82 | 2 | 1.72 | 1.74 | 2.32 |
| CCACACUUCCAGUAAUCGGUC [Fam1B.1 aminoacylation ribozyme variant] | 0.618 | 0.792 | 1.02 | 0.791 | 0.829 | 1.1 |
| CCACACUUCCCGCAAUCGGUC [Fam1B.1 aminoacylation ribozyme variant] | 0.932 | 1.37 | 1.42 | 1.5 | 1.73 | 1.78 |
| CCACACUUCCGGCAAUCGGUC [Fam1B.1 aminoacylation ribozyme variant] | 5.25 | 2.13 | 1.72 | 2.02 | 1.59 | 2.12 |
| CCACACUUCGAGCAAUAGGUC [Fam1B.1 aminoacylation ribozyme variant] | 0.533 | 0.361 | 0.703 | 0.588 | 0.446 | 0.785 |
| CCACACUUCGAGCAAUCGAUC [Fam1B.1 aminoacylation ribozyme variant] | 0.547 | 0.387 | 0.471 | 0.361 | 0.487 | 0.481 |
| CCACACUUCGAGCAAUCGGAC [Fam1B.1 aminoacylation ribozyme variant] | 0.331 | 0.929 | 0.916 | 0.897 | 0.935 | 1.67 |
| CCACACUUCGAGCAAUCGGUU [Fam1B.1 aminoacylation ribozyme variant] | 0.768 | 1.65 | 1.41 | 1.83 | 1.1 | 1.63 |
| CCACACUUCGAUCAAUCGGUC [Fam1B.1 aminoacylation ribozyme variant] | 0.966 | 0.903 | 0.826 | 0.767 | 0.777 | 0.871 |
| CCACACUUCGGGCAAUCGGUC [Fam1B.1 aminoacylation ribozyme variant] | 9.3 | 2.23 | 2.1 | 2.73 | 2.48 | 3.09 |
| CCACACUUCUAGCAAUCGAUC [Fam1B.1 aminoacylation ribozyme variant] | 0.626 | 0.432 | 0.556 | 0.447 | 0.457 | 0.716 |
| CCACACUUCUAUCAAUCGGUC [Fam1B.1 aminoacylation ribozyme variant] | 0.846 | 0.659 | 0.657 | 0.718 | 0.521 | 0.743 |
| CCACACUUCUGGCAAUCGGUC [Fam1B.1 aminoacylation ribozyme variant] | 1.18 | 0.873 | 1.23 | 1.26 | 1.54 | 1.49 |
